Assay results taken from paper PMC9482650, “Quantitative fragmentomics allow affinity mapping of interactomes” (Nature Communications, 2022).

B1: SIPA1, Q96FS4 (peptide)
chain: QLGSPTADLA
B2: WWTR1, Q9GZV5 (peptide)
chain: NKSEPFLTWL
B3: CDK18, Q07002 (peptide)
chain: RGKNRRQSIF
B4: CLDN8, P56748 (peptide)
chain: PSVYSRSQYV

Experiments:
Assay in all cases: holdup assay
Parameters in all cases: key: below the threshold = too weak to quantify, mostly under pKd 3.1 to 4
Settings in all cases: plain residues with an end cap or a label only (N-terminal biotin on a linker: ado-ado)
Inadl_1, Q8NI35 = biological target: Inadl_1, Q8NI35
Inadl_1, Q8NI35, sequence (Q8NI35 113-229): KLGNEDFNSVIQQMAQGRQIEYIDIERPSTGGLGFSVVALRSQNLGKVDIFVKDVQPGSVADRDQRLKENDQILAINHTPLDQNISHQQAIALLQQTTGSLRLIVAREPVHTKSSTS

MPDZ_12, O75970 = biological target: T1, MPDZ_12, O75970
T1 sequence (O75970 1857-1958, limits assumed, looked up): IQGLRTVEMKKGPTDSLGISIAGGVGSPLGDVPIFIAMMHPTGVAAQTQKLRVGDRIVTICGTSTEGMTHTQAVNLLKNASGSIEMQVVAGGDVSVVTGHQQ

LIN7B, Q9HAP6 = biological target: T2, LIN7B, Q9HAP6
T2 sequence (Q9HAP6 88-185, limits assumed, looked up): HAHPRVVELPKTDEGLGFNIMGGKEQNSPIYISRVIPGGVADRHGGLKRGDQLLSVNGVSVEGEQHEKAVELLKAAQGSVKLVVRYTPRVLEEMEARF

Inadl_10, Q8NI35 = biological target: Inadl_10, Q8NI35
Inadl_10, Q8NI35, sequence (Q8NI35 1673-1763): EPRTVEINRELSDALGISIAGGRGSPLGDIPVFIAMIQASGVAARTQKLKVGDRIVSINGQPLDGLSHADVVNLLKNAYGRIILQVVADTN

GOPC, Q9HD26 = biological target: GOPC, Q9HD26
DLG5_1, Q8TDM6 = biological target: DLG5_1, Q8TDM6
DLG5_1, Q8TDM6, sequence (Q8TDM6 617-713): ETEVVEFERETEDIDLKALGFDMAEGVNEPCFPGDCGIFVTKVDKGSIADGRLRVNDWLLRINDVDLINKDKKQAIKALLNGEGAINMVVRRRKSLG

NHERF4_4, Q86UT5 = biological target: NHERF4_4, Q86UT5
NHERF4_4, Q86UT5, sequence (Q86UT5 464-550): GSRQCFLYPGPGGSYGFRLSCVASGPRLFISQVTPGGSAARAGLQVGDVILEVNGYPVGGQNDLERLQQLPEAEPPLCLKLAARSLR

ARHGEF12, Q9NZN5-2 = biological target: ARHGEF12, Q9NZN5-2
ARHGEF12, Q9NZN5-2, sequence (Q9NZN5 other isoform, or with tags, fused parts or gaps): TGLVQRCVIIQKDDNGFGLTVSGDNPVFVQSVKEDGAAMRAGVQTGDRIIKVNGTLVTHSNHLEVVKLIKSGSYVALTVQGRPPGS

GRASP, Q7Z6J2 = biological target: GRASP, Q7Z6J2
GRASP, Q7Z6J2, sequence (Q7Z6J2 96-193): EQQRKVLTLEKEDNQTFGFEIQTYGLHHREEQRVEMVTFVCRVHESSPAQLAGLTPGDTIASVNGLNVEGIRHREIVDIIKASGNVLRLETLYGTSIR

MAGI2_2, Q86UL8 = biological target: MAGI2_2, Q86UL8
MAGI2_2, Q86UL8, sequence (Q86UL8 410-522): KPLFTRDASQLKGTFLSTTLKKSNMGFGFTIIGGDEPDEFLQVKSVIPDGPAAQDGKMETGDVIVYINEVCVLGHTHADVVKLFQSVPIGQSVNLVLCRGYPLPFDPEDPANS

NHERF2_2, Q15599 = biological target: NHERF2_2, Q15599
NHERF2_2, Q15599, sequence (Q15599 142-238): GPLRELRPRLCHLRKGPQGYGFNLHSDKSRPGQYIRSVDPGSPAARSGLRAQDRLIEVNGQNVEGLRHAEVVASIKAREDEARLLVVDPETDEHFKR

GORASP2, Q9H8Y8 = biological target: GORASP2, Q9H8Y8
MAGI2_6, Q86UL8 = biological target: MAGI2_6, Q86UL8
MAGI2_6, Q86UL8, sequence (Q86UL8 1141-1229): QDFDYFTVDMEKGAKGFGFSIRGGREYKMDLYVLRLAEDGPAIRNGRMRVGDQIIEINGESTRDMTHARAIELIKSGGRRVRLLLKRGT

FRMPD2_1, Q68DX3 = biological target: FRMPD2_1, Q68DX3
FRMPD2_1, Q68DX3, sequence (Q68DX3 770-861): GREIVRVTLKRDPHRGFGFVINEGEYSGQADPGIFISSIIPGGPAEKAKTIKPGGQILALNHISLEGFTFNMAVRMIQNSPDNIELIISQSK

DVL3, Q92997 = biological target: T3, DVL3, Q92997
T3 sequence (Q92997 244-331, limits assumed, looked up): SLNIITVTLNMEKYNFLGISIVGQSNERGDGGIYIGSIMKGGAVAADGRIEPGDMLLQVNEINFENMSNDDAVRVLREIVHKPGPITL

PTPN13_1, Q12923 = biological target: T4, PTPN13_1, Q12923
T4 sequence (Q12923 1088-1188, limits assumed, looked up): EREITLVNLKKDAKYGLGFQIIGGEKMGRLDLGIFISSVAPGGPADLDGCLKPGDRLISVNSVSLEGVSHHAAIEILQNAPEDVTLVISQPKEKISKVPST

Inadl_5, Q8NI35 = biological target: Inadl_5, Q8NI35
Inadl_5, Q8NI35, sequence (Q8NI35 673-780): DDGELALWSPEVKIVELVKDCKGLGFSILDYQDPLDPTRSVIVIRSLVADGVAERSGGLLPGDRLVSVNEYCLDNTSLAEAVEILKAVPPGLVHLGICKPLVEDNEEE

DLG1_2, Q12959 = biological target: DLG1_2, Q12959
DLG1_2, Q12959, sequence (Q12959 314-412): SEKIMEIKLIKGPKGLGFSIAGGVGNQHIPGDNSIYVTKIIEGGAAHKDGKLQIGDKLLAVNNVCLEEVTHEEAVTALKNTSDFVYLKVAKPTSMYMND

LIN7A, O14910 = biological target: T5, LIN7A, O14910
T5 sequence (O14910 103-200, limits assumed, looked up): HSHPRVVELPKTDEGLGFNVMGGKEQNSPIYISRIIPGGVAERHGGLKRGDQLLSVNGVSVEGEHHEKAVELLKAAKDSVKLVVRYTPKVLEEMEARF

GRID2IP_1, A4D2P6 = biological target: GRID2IP_1, A4D2P6
GRID2IP_1, A4D2P6, sequence (A4D2P6 1-87): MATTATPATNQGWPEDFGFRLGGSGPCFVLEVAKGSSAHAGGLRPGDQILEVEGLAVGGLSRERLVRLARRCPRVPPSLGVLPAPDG

SHANK1, Q9Y566 = biological target: T6, SHANK1, Q9Y566
T6 sequence (Q9Y566 658-767, limits assumed, looked up): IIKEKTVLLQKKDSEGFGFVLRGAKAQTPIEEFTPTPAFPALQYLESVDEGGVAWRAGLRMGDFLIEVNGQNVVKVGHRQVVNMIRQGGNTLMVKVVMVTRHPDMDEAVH

TX1BP3, O14907 = biological target: T7, TX1BP3, O14907
T7 sequence (O14907 10-122, limits assumed, looked up): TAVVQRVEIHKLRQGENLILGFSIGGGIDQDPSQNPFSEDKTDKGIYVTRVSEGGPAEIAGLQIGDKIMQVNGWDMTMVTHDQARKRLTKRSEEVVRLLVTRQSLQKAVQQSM

PCLO, Q9Y6V0 = biological target: T8, PCLO, Q9Y6V0
T8 sequence (Q9Y6V0 4491-4600, limits assumed, looked up): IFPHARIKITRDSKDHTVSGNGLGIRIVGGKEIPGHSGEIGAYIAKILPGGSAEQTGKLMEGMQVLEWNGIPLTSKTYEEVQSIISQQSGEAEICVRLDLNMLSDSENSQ

LNX1_1, Q8TBB1 = biological target: LNX1_1, Q8TBB1
LNX1_1, Q8TBB1, sequence (Q8TBB1 261-371): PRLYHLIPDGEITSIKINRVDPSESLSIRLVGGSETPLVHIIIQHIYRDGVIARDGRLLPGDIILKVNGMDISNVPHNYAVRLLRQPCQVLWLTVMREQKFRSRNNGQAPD

Inadl_9, Q8NI35 = biological target: Inadl_9, Q8NI35
Inadl_9, Q8NI35, sequence (Q8NI35 1530-1615): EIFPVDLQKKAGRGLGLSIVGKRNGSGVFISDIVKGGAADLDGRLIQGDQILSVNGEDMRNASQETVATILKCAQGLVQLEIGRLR

MAST2, Q6P0Q8 = biological target: MAST2, Q6P0Q8
MAST2, Q6P0Q8, sequence (Q6P0Q8 1099-1202): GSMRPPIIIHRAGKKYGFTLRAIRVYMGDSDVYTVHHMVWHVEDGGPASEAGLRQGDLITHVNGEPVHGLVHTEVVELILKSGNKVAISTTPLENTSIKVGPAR

DLG3_1, Q92796 = biological target: T9, DLG3_1, Q92796
T9 sequence (Q92796 125-227, limits assumed, looked up): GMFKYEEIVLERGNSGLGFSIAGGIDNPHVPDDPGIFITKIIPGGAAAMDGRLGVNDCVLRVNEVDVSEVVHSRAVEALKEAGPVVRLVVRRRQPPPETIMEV

DLG3_3, Q92796 = biological target: T10, DLG3_3, Q92796
T10 sequence (Q92796 374-475, limits assumed, looked up): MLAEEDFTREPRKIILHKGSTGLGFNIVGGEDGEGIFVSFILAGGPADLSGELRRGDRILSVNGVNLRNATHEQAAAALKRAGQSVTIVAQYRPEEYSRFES

Binder | pKd (Inadl_1, Q8NI35) | pKd (MPDZ_12, O75970) | pKd (LIN7B, Q9HAP6) | pKd (Inadl_10, Q8NI35) | pKd (GOPC, Q9HD26) | pKd (DLG5_1, Q8TDM6) | pKd (NHERF4_4, Q86UT5) | pKd (ARHGEF12, Q9NZN5-2) | pKd (GRASP, Q7Z6J2) | pKd (MAGI2_2, Q86UL8) | pKd (NHERF2_2, Q15599) | pKd (GORASP2, Q9H8Y8) | pKd (MAGI2_6, Q86UL8) | pKd (FRMPD2_1, Q68DX3) | pKd (DVL3, Q92997) | pKd (PTPN13_1, Q12923) | pKd (Inadl_5, Q8NI35) | pKd (DLG1_2, Q12959) | pKd (LIN7A, O14910) | pKd (GRID2IP_1, A4D2P6) | other results
B1 | below the threshold | 3.75 | 3.9 | below the threshold | below the threshold | below the threshold | below the threshold | below the threshold | below the threshold | below the threshold | below the threshold | below the threshold | below the threshold | below the threshold | below the threshold | below the threshold | below the threshold | below the threshold | below the threshold | below the threshold | pKd (SHANK1, Q9Y566): below the threshold; pKd (TX1BP3, O14907): below the threshold; pKd (PCLO, Q9Y6V0): below the threshold; pKd (LNX1_1, Q8TBB1): below the threshold; pKd (Inadl_9, Q8NI35): below the threshold; pKd (MAST2, Q6P0Q8): below the threshold; pKd (DLG3_1, Q92796): below the threshold; pKd (DLG3_3, Q92796): below the threshold
B2 | 4.52 | 4.9 | below the threshold | 4.63 | 4.16 | below the threshold | 4.21 | 4.95 | 5.28 | 3.57 | 5.27 | 4.9 | 4.9 | below the threshold | 4.54 | 3.66 | below the threshold | 3.59 | below the threshold | below the threshold | pKd (SHANK1, Q9Y566): 5.29; pKd (TX1BP3, O14907): 4.49; pKd (PCLO, Q9Y6V0): below the threshold; pKd (LNX1_1, Q8TBB1): 4.13; pKd (Inadl_9, Q8NI35): 4.23; pKd (MAST2, Q6P0Q8): 5.65; pKd (DLG3_1, Q92796): below the threshold; pKd (DLG3_3, Q92796): below the threshold
B3 | below the threshold | 3.58 | 4.03 | below the threshold | below the threshold | below the threshold | below the threshold | below the threshold | 3.81 | below the threshold | below the threshold | 3.87 | below the threshold | 3.5 | below the threshold | below the threshold | below the threshold | below the threshold | below the threshold | below the threshold | pKd (SHANK1, Q9Y566): below the threshold; pKd (TX1BP3, O14907): below the threshold; pKd (PCLO, Q9Y6V0): below the threshold; pKd (LNX1_1, Q8TBB1): 3.95; pKd (Inadl_9, Q8NI35): below the threshold; pKd (MAST2, Q6P0Q8): 4.34; pKd (DLG3_1, Q92796): below the threshold; pKd (DLG3_3, Q92796): 3.71
B4 | below the threshold | below the threshold | below the threshold | below the threshold | below the threshold | below the threshold | below the threshold | 4.19 | 3.51 | below the threshold | below the threshold | 4.88 | below the threshold | 4.36 | 3.63 | below the threshold | 4.31 | 3.86 | below the threshold | below the threshold | pKd (SHANK1, Q9Y566): below the threshold; pKd (TX1BP3, O14907): below the threshold; pKd (PCLO, Q9Y6V0): below the threshold; pKd (LNX1_1, Q8TBB1): below the threshold; pKd (Inadl_9, Q8NI35): 4.36; pKd (MAST2, Q6P0Q8): below the threshold; pKd (DLG3_1, Q92796): below the threshold; pKd (DLG3_3, Q92796): below the threshold
